Values of other authors as cited in article PMC4041429.
pKd: −log10 of the molar value.

Target: β clamp (Escherichia coli) (UniProt P0A988)

β clamp (from UniProt P0A988)
pKd: > 7.30
